The numbers were not newly measured in publication PMC8507859, which cites them from elsewhere.

Where two headings read alike, the source gives them in different places.

In data set [1] the target is Integrin α2 (Homo sapiens) (UniProt P17301).
Data set [2] has as its target MMP-14 (Homo sapiens) (UniProt P50281).
For data set [3] the target is unchanged. This is another data set of the same source.

TIMP-2, sequence (P16035 27-220): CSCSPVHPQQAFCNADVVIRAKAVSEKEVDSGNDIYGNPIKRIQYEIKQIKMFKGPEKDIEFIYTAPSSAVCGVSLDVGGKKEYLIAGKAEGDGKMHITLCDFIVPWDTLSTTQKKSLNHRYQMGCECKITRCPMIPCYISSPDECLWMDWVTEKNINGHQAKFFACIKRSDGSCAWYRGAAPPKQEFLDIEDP
Integrin α2 (Homo sapiens), sequence (P17301 30-1132): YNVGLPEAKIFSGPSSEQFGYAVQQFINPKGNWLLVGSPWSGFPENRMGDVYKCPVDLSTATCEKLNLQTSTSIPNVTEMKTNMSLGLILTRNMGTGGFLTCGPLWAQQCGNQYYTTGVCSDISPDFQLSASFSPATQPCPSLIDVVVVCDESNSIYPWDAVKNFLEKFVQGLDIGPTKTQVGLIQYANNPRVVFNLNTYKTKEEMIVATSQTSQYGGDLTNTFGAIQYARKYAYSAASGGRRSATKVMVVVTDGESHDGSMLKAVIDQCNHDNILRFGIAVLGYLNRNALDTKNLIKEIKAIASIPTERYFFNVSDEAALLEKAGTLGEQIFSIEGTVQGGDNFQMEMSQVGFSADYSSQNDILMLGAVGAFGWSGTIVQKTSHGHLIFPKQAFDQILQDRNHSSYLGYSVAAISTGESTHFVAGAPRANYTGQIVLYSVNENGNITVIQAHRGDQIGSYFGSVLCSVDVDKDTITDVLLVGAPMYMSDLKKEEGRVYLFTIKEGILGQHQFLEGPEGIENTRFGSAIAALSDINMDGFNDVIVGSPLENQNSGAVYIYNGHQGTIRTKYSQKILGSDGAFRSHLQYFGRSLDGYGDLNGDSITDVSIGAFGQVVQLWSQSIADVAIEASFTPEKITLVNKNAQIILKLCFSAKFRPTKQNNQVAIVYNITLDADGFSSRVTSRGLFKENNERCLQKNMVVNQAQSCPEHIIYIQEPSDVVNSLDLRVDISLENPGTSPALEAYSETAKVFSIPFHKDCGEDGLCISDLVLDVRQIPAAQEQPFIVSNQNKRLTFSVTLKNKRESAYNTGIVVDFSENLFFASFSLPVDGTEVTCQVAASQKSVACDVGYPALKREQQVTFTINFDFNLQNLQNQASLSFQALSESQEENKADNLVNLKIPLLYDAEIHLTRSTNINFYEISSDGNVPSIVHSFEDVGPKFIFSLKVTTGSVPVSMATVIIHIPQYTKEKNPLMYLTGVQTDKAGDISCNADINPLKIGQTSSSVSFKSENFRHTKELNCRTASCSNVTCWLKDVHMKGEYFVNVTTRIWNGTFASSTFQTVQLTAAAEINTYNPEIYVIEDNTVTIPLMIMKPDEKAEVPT
TIMP-1, sequence (P01033 24-207): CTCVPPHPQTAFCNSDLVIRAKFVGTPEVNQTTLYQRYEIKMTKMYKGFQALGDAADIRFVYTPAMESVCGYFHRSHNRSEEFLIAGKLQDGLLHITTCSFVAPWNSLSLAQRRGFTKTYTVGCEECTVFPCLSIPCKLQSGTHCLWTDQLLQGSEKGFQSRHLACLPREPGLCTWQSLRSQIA
Lumican, sequence (P51884 19-338): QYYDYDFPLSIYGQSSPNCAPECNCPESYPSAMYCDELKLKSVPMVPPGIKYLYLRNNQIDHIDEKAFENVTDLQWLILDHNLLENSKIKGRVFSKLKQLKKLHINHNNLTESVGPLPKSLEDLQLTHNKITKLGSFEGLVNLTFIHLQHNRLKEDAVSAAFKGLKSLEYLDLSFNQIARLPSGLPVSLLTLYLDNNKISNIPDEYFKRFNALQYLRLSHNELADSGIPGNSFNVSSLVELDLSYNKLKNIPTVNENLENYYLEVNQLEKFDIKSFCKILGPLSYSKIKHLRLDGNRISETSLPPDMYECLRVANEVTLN

Turning to Lumican (from UniProt P51884), the Kd in data set [1] is 200 nM.

For the substance TIMP-1 (from UniProt P01033), the Kd in the data set with MMP-14 (Homo sapiens) [2] was 1530 nM.

Turning to TIMP-2 (from UniProt P16035), the equilibrium dissociation constant (Kd) with MMP-14 (Homo sapiens) [3] was 56.1 nM.

What is called Kd is the equilibrium constant for the complex coming apart.
